The text below walks through data of the DeepSol protein solubility set.

The data set in a line: soluble on expression in E. coli; label from the status in PepcDB or PDB records.
As for “MMLAISEIRKHPDGLSFDRLCDVKSMLLERDQQIIDIKAVKAVGNVRYDKGLYLLDYQLSYEVILPSSRSMVPVCLSEVQHIQELFIEATDLADKKELVEDNLVLVLDKDAINLEESIVDNILLAIPVQVLTEEEKKSKELPAGQNWAVLTEEDYQCLKEEKQKENNPFASLQGLFDE”, the “soluble on expression in E. coli” value was “not soluble”.

Turning to “MMMGEVQSLPSCGLHPRLLDALTLALAARPQEKAPGRYELQGDNVFMNVMQLTTQMPAEKKAELHEQYIDIQLLLTGVERIAFGMSGAARQCEEMHVEEDYQLCSQIVDEQTITLQAGMFAVFMPGEPHKPGCAVGEPDDIKKVVVKVRASLLAA”, the “soluble on expression in E. coli” value is “not soluble”.

As to “MMPPLTKIEVLAKRVMEGAQLKTHKYFRIAVPHAITGQQLIALVLERGAPDDEAEASHLASLLLHHGYMFPVIEHGQPFKDDGTLYRLQRPYFWPSQAELVPDVEYAIYLNKRLLRNEQKHGLEEDEVESFNRLADVLAHMWAFIVQQSELQLKQQKEKKKVDKVVFDSEERAFWKIRKPSRGGPNFLEDPYMKIEKKIRRQNAQGYRCLMDRLRFAIKTKPWLKALKASDTMVTWVDQRAEFDPFLHPPQPSNPWISDEASFWNQPTDTSSAEIPTEKRVKRWGLSVQELVKDPIGRQVLETFLESEFSSENIRFWIAIQDLKYAPNEQIYQKAERIREEFLAQGAPAQVNVDNRTLDQTLECISKAKDASQMRFAFYHSEEHVFTLMAKDSYPRFVRSQIYKAVLTAAQQHGTKRLGWRNFVFNMGTTKKPATSKPAKPQDSIGTGQVLPKQLSSDSLPVRQAHGVKPDPE”, the “soluble on expression in E. coli” value is on record as “not soluble”.

Regarding “MMPRMGPPAAARQDNPLHVSFRNPQWPPNFINKDNVLDYFCNQANAFYEMNSCNQQIRMQNIVNRTVEECLRTMPGIQYVLWYSQPPLFIICKQRRNNVTNVSPIAYYYVINGSVHQAPDMYSLVQSRLLGALEPLRNAFGEVTNYSRYNTAKGYYWEFKNKPNVKKREEEKKEDEEEKLEDRSTNFQKTRTMMLLNQLFSEMPAEDALEREEKEEVEEEEEETLKTEEPTTSTDEPKFAEPTARTTSKQ”, the “soluble on expression in E. coli” value is on record as “not soluble”.

Regarding “MMQYMLLFSRQGKLRLQKWYTAYPDKQKKKICRELITQILARKPKMCAFLEYKDLKVVYKRYASLYFCCAIEQNDNELITLEVIHRYVELLDKYFGSVCELDIIFNFEKAYFILDEFLLAGEIQETSKKQVLKAIAAQDLIQEEETPQGFFEDHGLG”, the “soluble on expression in E. coli” value is “not soluble”.

With “MMRGGMGNMQKMLKQMQKMQKEMQKAQEELAEKTVEGTAGGGMVTVVANGHKQILEVKIKEEVVDPDDIEMLQDLILAATNDALKKADELANEMMGQFTKGLNIPGLF”, the “soluble on expression in E. coli” value is reported as “not soluble”.

Take “MMRSLLSHPQPSHAIRSPAAACALALFLSGCQSLGTDGLTASNAPAEISGPAASAIAGDMVGRLAEQIGPGTATVSLKQDNSPFGQALEAALKGWGYAVVTDQKTDGVSRIVPLAYVVIPFEGQVLTRLSTNSIELGRAYIVTTSGAQPASALAVMKRGLEHHHHHH”: the “soluble on expression in E. coli” value is on record as “not soluble”.

For the sequence “MMSIFSVQTGSLVGTVHRYVKQPRQSWAYPIKQKSQTGTDNTKSALTLEKFTKPLTRKFSHDTICRKAPFVGVELQKPSATLTIMGKVHRQRQE”, the “soluble on expression in E. coli” value is given as “not soluble”.

On to “MMSMIEKLKKFTQIPGISGYEERIREEIIREIKDFADYKVDAIGNLIVELGEGEERILFMAHMDEIGLLITGITDEGKLRFRKVGGIDDRLLYGRHVNVVTEKGILDGVIGATPPHLSLERDKSVIPWYDLVIDIGAESKEEALELVKPLDFAVFKKHFSVLNGKYVSTRGLDDRFGVVALIEAIKDLVDHELEGKVIFAFTVQEEVGLKGAKFLANHYYPQYAFAIDSFACCSPLTGDVKLGKGPVIRAVDNSAIYSRDLARKVWSIAEKNGIEIQIGVTGGGTDASAFQDRSKTLALSVPIKYLHSEVETLHLNDLEKLVKLIEALAFEL”, for which the “soluble on expression in E. coli” value was “soluble”.

Take “MMSSNQQPVVLGKLGSCHGIKGWLKITAYTDSVEGIFDYSPWLIKENGEWREVKVIQWRYQGKAVVAELEGVTTRERAQMLTNCEIGILPQQMNALPEDEFYWRDLIGCEVINTTGYNMGIVDQIVETGSNDVLLVKANAKDSFGKVERMVPFVPGQFILKVDVQGKQILVDWDPDFLEHHHHHH”: the “soluble on expression in E. coli” value is “soluble”.

Regarding “MMTMWVFGYGSLMWNPGFPVARRELATLSGWSRSFCMSSIHHRGTEEKPGLVLALDAVHNARCRGIAFAVEPGHEARTLDELRERELISSAYLERELEIDLDIGERVCAVTYVIDPHHEQYCGGMPLERQAQIIATAIGGRGPNTEYLYNTAAHLAEIGLGDPDLDWLSARVREITSLEHHHHHH”, the “soluble on expression in E. coli” value was “soluble”.

“MNAHDEVQRTLNPTCTGTSVIALQYKTGVVVLTDRVVSYGKMARYKNVSRQYKVNDNVLIAFGGDHADFHWLQNVIERQVLLWKRFDQDIGPKALHGYLTSLLYAKRCKMNPVWNTLVVAGVEEEEKNNKETSTPFIGVITQKGCAYQVKHIATGLGAFLLNQAVEDEWRKKGEDLSREEAEAVLRKSLELTLYHDCVADNEFEIGRVDATEGVVLGKEEKIIGDWSIAETNCQYE”: the “soluble on expression in E. coli” value was “not soluble”.

In the case of “MNAPLRFGPYAVSRFVDGVYKAPVGHLIHRQGAVALAAVVAGLEGETVDMDVNCFALSGPDGVWLIDAGCGTAWGAAYGHARAAMLAAGIQPDDVSRVILTHIHGDHALGLIDGDRPYFPNAEIWVPEADLAFFTNADARKTLPPARQGGFDLAARLLDICGAMLRPIPTGTVAEDIEAIAMPGHTPGHMGYLIGSGDARLLLWGDVLHVGELQAADPEIAFVYDIDSELAYATRLAALAEAADHGWLVSGGHLGGFFHIERRGDSFRFVPQPG”, the “soluble on expression in E. coli” value is listed as “not soluble”.

As to “MNASSRTKPAIDLNKVPPIDHHRTAVTFNCLIMKMTEMLNNFGNKMEDILEKAEQSLDTADRKLRLMESKLAGMSLEDKSTTATPSSAPEIDEIHESNPSSSQIVEETVEEKPEEHTTTVLIKDDPAYSKYFKMLKLGVLEAGVIQKMKSEGVDPSILKRGDEPSRPQAQTSRNYESSGESTASFSDSD”, the “soluble on expression in E. coli” value was “not soluble”.

As to “MNDEDSEERRHHPKVPRLARQSHPEPPGPSSSTSSTPLFTDPTIHTILDQIGQRLASFSESDVKRIKNYLSTVTVTQEACVLLLLPNKEREKLMFAEIERHILENYEYSMIIHRYVNDVLKHAIETQFVNPDKLDESNDAWKDGLKMISEQKMRSSRYTAARARSQRFAIANDSYFPRPEIVPSTDHPVFASRPSVSTQEVRTGRQQIDQEVSGRKREFHGKLIPITGVVEEPSVRINAELQQSETQQIGDSSDQTDTATPISDIATHQDPENEISPSVTEGSNDIADDAGAGDDFSESTTGAVQPEQQASEHSNSEGVEKSSCAESLKEQPDQSSPAVSNTVSENSNTDSEICSGIDQNPNSDNLESTIDVGEPLRNTSDQPSPDPCSDVQIGVNSTTKQSTDPSVNVQLGHKSSDQPSTDPSAHAQLEDNCTIQPSTDPSSNDQLGDNTSDQNSTDPSSDVPMEDPGESGSAASTPPPDWDVAEVPIPQCSGHSDGNIGGTNEVTPPEQEAQVLAPRRSERSRIKNIWLSRDEVERLRYEFVPPPSRKDIPKCTAKKPEAEIPNVEPESSSTVESQRDEDQAVASASSVAEPLEEATTTSVPEPTEFQLSRDIYSTVKPTDEAHSPPIQAQPKKKATPRRKKADDVETVVADGTATIPKPKRKRPPRKKPEPKPNIVFETTPNPPTESFAANNNFQQFQFQNQPGSWTYNNGFGNGYGYGGGTTGYMDNLVGRGFDTVSQQPGFQNQGYEFTGLPANNSNNFPFL”, the “soluble on expression in E. coli” value is “not soluble”.

For “MNDFSLELPVRTNKPRETGQSILIDNGYPLQFFKDAIAGASDYIDFVKFGWGTSLLTKDLEEKISTLKEHDITFFFGGTLFEKYVSQKKVNEFHRYCTYFGCEYIEISNGTLPMTNKEKAAYIADFSDEFLVLSEVGSKDAELASRQSSEEWLEYIVEDMEAGAEKVITEARESGTGGICSSSGDVRFQIVDDIISSDIDINRLIFEAPNKTLQQGFIQKIGPNVNLANIPFHDAIALETLRLGLRSDTFFLLEHHHHHH”, the “soluble on expression in E. coli” value was “not soluble”.

On to “MNDIEAAFHQYFEIIDADTPELLKTVFDLRYRILCVHNVIPGFDTNNYPNELESDQYDSHSIHFLLRHRPTNTFIGTTRLILPNPLDPMDKFPTELNTHFYPGFVLDSSSRKHTTEVSRFAILSDFFKRKGERNMLSQSTEIGCKAQERRRFPHPMLGLVVGLIQLCARNNIYHLISAMEPALNKLLGFYSLQMNPIGPPADYHGLRTPYYLYLPDLLDRMYQDHRSLWELITDHGRIWPMNLACIHQKTLKTAYTDNVYISE”, for which the “soluble on expression in E. coli” value is reported as “not soluble”.

With “MNDLKSKSNIKLMKRVLTTYELRKYLKKYFCLTLDNYLVLAYLDVFKNDEGKYFMRDIISYIGIDQSRIVKSVKDLSKKGYLNKCRDPHDSRNVIIVVSVKQHNYIKNLLSEININET”, the “soluble on expression in E. coli” value was “not soluble”.

For the sequence “MNDNAFTFQTLHPETIMDALFEQGIMVDSGLTPLNSYENRVYQFQDEDRRRFVVKFYRPERWSVDQIREEHQFALELVKDEVPVAAPLAFNGQTLLAHQGYHYAIFPSVGGRQFEADNIDQMEAVGRYLGRLHQTGRKRPFTFRPDIGLAEYLFEPRQVFEDAALIPSGQKAAFLKATDTLLSAVTECWRTDFATLRLHGDCHAGNILWRDGPLFVDLDDARNGPAIQDLWMLLNGDKAEQRMQLETIIEAYEEVSEFDTAEIGLIEPLRAMRLVYYLAWLIRRWGDPAFPKNFPWLTGEDYWQRQTTTFIEQTKILHEPPLQLTPMYLEHHHHHH”, the “soluble on expression in E. coli” value is given as “not soluble”.

For the sequence “MNDNLYSLIEQRILVLDGAMGTMIQRHGLDEQDYRGERFASHDHPLKGNNDLLVITRPDIIRSIHCDFLDAGADIIETCTFNANPISQSDYQLQDLTRELNVAAAKIARSAADEFTAKTPDKPRFVAGSIGPTNKTLSLSPDVNNPGFRAVTFQEMVDNYTAQLEGLHEGGVDLLLVETVFDTLNCKAALYAIEEYAVKTGWQVPVMVSGTVVDASGRTLSGQTTEAFWISISHMPSLLSVGLNCALGSKQMRPFIEALSNIAESYVSVYPNAGLPNEFGEYDDSPEYMAAQIAGFAESGFVNIVGGCCGTTPTHIRAIAEAVKTLPPRKRPANKHVLRLSGLEPLVVDETTGFINVGERTNVTGSRKF”, the “soluble on expression in E. coli” value is recorded as “not soluble”.

In the case of “MNDRARELASRLIRNFNEASLEHEVREPLYESAAARLGTGTVAHKLGASVDVVAPGKRSCPYHFHHAQEEMFVIIEGEGSLRVAGEMLPIKTGDVLFIPAGPEYPHQIINTSQAPLKYLSISTRETPEVCEYPDSGKYQAMVSANGARVFTANQRTTENVDYWDGEPLEHHHHHH”, the “soluble on expression in E. coli” value is “soluble”.

“MNDTAGELEFVPLAANDDETVGQWLDLMALAAETGPRAAPPCNVDMVGSLRFAPPATALDDWVVRSGGRVVGALRLALPDGAPTARVDQLLVHPGRRRRGIGRALWAHARELARKHDRTTLTATVVESLPSGPAQDPGPAAFAAAMGAHRSDIPAGTHQWLDLDRHDPLADGVPAVPAGYSLVTWGTITPDEYAVPVSELELSLGAGPVDRAAQEVRTSYARQFETMRVGRGRRAYHTGAVHDATGALAGYTSVSKTTGNPAYALQGMTVVHREHRGHALGTLLKLANLEYVLRHEPEVRLVETANAEDNHPMIAVNAALGFEPYDRWVFWTAEAGPSD”: the “soluble on expression in E. coli” value was “soluble”.

As for “MNEDNSQNSEGPSRKSFFERLSQLFQGEPKDRQELVDVIRDSEVNDLIDHDTRDMLEGVMEIAEMRVRDIMIPRSQMVTIDRTHNLDALVAIMTDAQHSRYPVISEDKDHVEGILLAKDLLKYLGSNCAPFNIQEVIRPAVVVPESKRVDRLLKEFREERYHMAIVVDEFGGVSGLVTIEDILEEIVGDIEDEFDDEEQKDIRQLSKHTFSVKALTTIEDFNHTFGTKFSDEEVDTVGGLVMTAFGHLPARGEVVDIAGYNFKVTAADSRRVVALQVTVPDLEALSHVAEE”, the “soluble on expression in E. coli” value is “not soluble”.
